According to patent US20090142377A1:

Target: dH5-II (cdH5-0 heat-cycled at pH 2, back to pH 7) (influenza A virus H5N1 strain A/Vietnam/1203/04), Q8QPL1
Assay: ELISA, coated H5 form, tPA series with excess e-amino caproic acid
Settings: remark: other sources report otherwise

B1: tissue type plasminogen activator (tPA; Actilyse, Boehringer-Ingelheim), P00750 36-562 (enzyme)
chain: SYQVICRDEKTQMIYQQHQSWLRPVLRSNRVEYCWCNSGRAQCHSVPVKSCSEPRCFNGGTCQQALYFSDFVCQCPEGFAGKCCEIDTRATCYEDQGISYRGTWSTAESGAECTNWNSSALAQKPYSGRRPDAIRLGLGNHNYCRNPDRDSKPWCYVFKAGKYSSEFCSTPACSEGNSDCYFGNGSAYRGTHSLTESGASCLPWNSMILIGKVYTAQNPSAQALGLGKHNYCRNPDGDAKPWCHVLKNRRLTWEYCDVPSCSTCGLRQYSQPQFRIKGGLFADIASHPWQAAIFAKHRRSPGERFLCGGILISSCWILSAAHCFQERFPPHHLTVILGRTYRVVPGEEEQKFEVEKYIVHKEFDDDTYDNDIALLQLKSDSSRCAQESSVVRTVCLPPADLQLPDWTECELSGYGKHEALSPFYSERLKEAHVRLYPSSRCTSQHLLNRTVTDNMLCAGDTRSGGPQANLHDACQGDSGGPLVCLNDGRMTLVGIISWGLGCGQKDVPGVYTKVTNYLDWIRDNMRP
**Q.** What does the source list for B1?
**A.** Bmax: 0.07; Kd: 19 nM
